From patent publication EP0574621A1 come the findings set out here.

Where two headings read alike, the source gives them in different places.

In assay [1] the target is von Willebrand factor (UniProt P04275). The experiment in a line: cell-based or functional assay.
Assay [2] shares this target. The experiment in a line: ratio of IC50 values from the competitive radiolabelled botrocetin binding assay.
Assay [3] shares this target. The experiment in a line: competitive inhibition of 125I-two-chain botrocetin binding to vWF in solution by unlabeled two-chain botrocetin; vWF captured on 2-2-9 IgG coated wells.
Assay [4] shares this target.

Consider two-chain botrocetin, for which, in assay [1], the Half maximal binding capacity (BM50) worked out at 0.16 µg/mL and the fold greater activity (BM50) than one-chain botrocetin is 34 fold. The fold higher affinity than one-chain botrocetin in assay [2] was found to be 32 fold. Also, in assay [3], the half-maximal inhibitory concentration (IC50) (commonly the concentration needed to halve the response being measured) came out at 1.7 µg/mL.
In assay [4], one-chain botrocetin gave an IC50 of 55 µg/mL. For the same substance, in assay [1], the Half maximal binding capacity (BM50) stood at 5.5 µg/mL, the concentration giving maximal vWF binding to glycoprotein Ib was 17 µg/mL and the minimum concentration necessary to induce vWF binding to glycoprotein Ib was 1 µg/mL.
